A short description of this data set: self-splicing fitness, log relative to wild type (ln ratio); higher = more splicing; Tetrahymena group I intron in knt gene, E. coli kanamycin selection, DiMSum; sequences stand for … in CUCUCU…GGAGGGAAAAGUUAUCAGGCAUGCACCUGGUAGCUAGUCUUUAAACCAAUAGAUUGCAUCGGUUUAAAAGGCAAGACCGUCAAAUUGCGGGAAAGGGGUCAACAGCCGUUCAGUACCAAGUCUCAGGGGAAACUUUGAGAUGGCCUUGCAAAGGGUAUGGUAAUAAGCUGACGGACAUGGUCCUAACCACGCAGCCAAGUCCUAAGUCAACAGAUCUUCUGUUGAUAUGGAUGCAGUUCACAGACUAAAUGUCGGUCGGGGAAGAUGUAUUCUUCUCAUAAGAUAUAGUCGGACCUCUCCUUAAUGGGAGCUAGCGGAUGAAGUGAUGCAACACUGGAGCCGCUGGGAACUAAUUUGUAUGCGAAAGUAUAUUGAUUAGUUUUGGAGUACUCGUGGUCG
The essentials:
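The eight P1ex-region nucleotides of an intron in the knt kanamycin-resistance gene on pET-22b(+) were all randomised and the library put into E. coli BL21(DE3). Six replicate transformations were grown overnight at 37°C or 30°C on LB agar with or without 25 μg/mL kanamycin, together with 100 μg/mL carbenicillin, 50 μM IPTG and 0.2% rhamnose. Colonies were pooled and amplicon-sequenced on an Illumina HiSeq 2500. Fitness from DiMSum is the error-weighted combination of wild-type-normalised replicate fold changes, kanamycin over none.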

± gives the uncertainty stated by the source.

In the case of AUACAGCAAUAUUACGGUCU, the “self-splicing fitness (ln)” value (30 °C) stood at 0.331 ± 0.06 and the “self-splicing fitness (ln)” value (37 °C) is -0.16 ± 0.064. Taken in the same sequence, the figures for UCGCAGCAAUAUUACGUAAC were -3.25 ± 0.29 and -1.73 ± 0.23. On to ACGUAGCAAUAUUACGGUGU, for which the “self-splicing fitness (ln)” value was -2.43 ± 0.11 (30 °C) and -1.81 ± 0.14 (37 °C). For AACUAGCAAUAUUACGCGCA the same measures were -0.47 ± 0.099 and 0.116 ± 0.12. Consider CAGCAGCAAUAUUACGAACA, for which the “self-splicing fitness (ln)” value was -2.72 ± 0.38 (30 °C) and -2.17 ± 0.32 (37 °C). For the sequence AGUCAGCAAUAUUACGGGAA, the “self-splicing fitness (ln)” value reads like this: (30 °C) -2.12 ± 0.17; (37 °C) -2.4 ± 0.22.

With UCGAAGCAAUAUUACGAUGA, the “self-splicing fitness (ln)” value was -0.316 ± 0.068 (30 °C) and 0.368 ± 0.074 (37 °C). Taken in the same sequence, the figures for UUGGAGCAAUAUUACGUGUU were -2.58 ± 0.2 and -2.79 ± 0.33. On to GUAUAGCAAUAUUACGGUUC, for which the “self-splicing fitness (ln)” value was -1.22 ± 0.1 (30 °C) and -0.0871 ± 0.12 (37 °C).

Take UCGAAGCAAUAUUACGGGCG: the “self-splicing fitness (ln)” value was 0.0324 ± 0.093 (30 °C) and -0.219 ± 0.1 (37 °C). Taken in the same sequence, the figures for CCAUAGCAAUAUUACGGCCG were -0.548 ± 0.098 and -0.739 ± 0.12. Taken in the same sequence, the figures for ACCGAGCAAUAUUACGGAGU were -3.72 ± 0.25 and -2.11 ± 0.18. Taken in the same sequence, the figures for AAACAGCAAUAUUACGCUGU were -3.85 ± 0.14 and -1.89 ± 0.096.

With CCCAAGCAAUAUUACGUAGG, the “self-splicing fitness (ln)” value runs as follows: (30 °C) -2.17 ± 0.067; (37 °C) -1.56 ± 0.082. As to UACUAGCAAUAUUACGGGGU, the “self-splicing fitness (ln)” value is -4.05 ± 0.19 (30 °C) and -2.71 ± 0.2 (37 °C). For GCGAAGCAAUAUUACGAGCA the same measures were -1.52 ± 0.2 and -1.63 ± 0.25.

For ACUCAGCAAUAUUACGCCGG, the “self-splicing fitness (ln)” value (30 °C) was -0.85 ± 0.074 and the “self-splicing fitness (ln)” value (37 °C) is -0.683 ± 0.092.

Regarding AAAGAGCAAUAUUACGAGGC, the “self-splicing fitness (ln)” value runs as follows: (30 °C) -3.57 ± 0.24; (37 °C) -2.74 ± 0.28.

For the sequence UGAGAGCAAUAUUACGCUGC, the “self-splicing fitness (ln)” value (30 °C) was -2.67 ± 0.42. On to UAACAGCAAUAUUACGGCGU, for which the “self-splicing fitness (ln)” value by setting is: (30 °C) -1.79 ± 0.11; (37 °C) -1.01 ± 0.1. With AUAGAGCAAUAUUACGCCGC, the “self-splicing fitness (ln)” value (37 °C) is -2.75 ± 0.44. On to GGGAAGCAAUAUUACGUCAG, for which the “self-splicing fitness (ln)” value (30 °C) is -2.92 ± 0.33 and the “self-splicing fitness (ln)” value (37 °C) is -2.52 ± 0.33. For GGUGAGCAAUAUUACGGUCG the same measures were -1.29 ± 0.077 and -0.612 ± 0.1. Taken in the same sequence, the figures for GGCGAGCAAUAUUACGUUCA were -0.77 ± 0.1 and 0.0965 ± 0.13. For CGCCAGCAAUAUUACGUACG the same measures were -1.6 ± 0.098 and -0.916 ± 0.12. With UUCGAGCAAUAUUACGGGGA, the “self-splicing fitness (ln)” value runs as follows: (30 °C) -1.7 ± 0.18; (37 °C) -0.829 ± 0.19. Taken in the same sequence, the figures for AUAGAGCAAUAUUACGUCCG were -2.71 ± 0.23 and -3.65 ± 0.34. For UAUUAGCAAUAUUACGAGCG the same measures were -0.705 ± 0.11 and -0.219 ± 0.15. On to UGCCAGCAAUAUUACGGCAG, for which the “self-splicing fitness (ln)” value by setting is: (30 °C) -2.25 ± 0.093; (37 °C) -1.15 ± 0.1. For AAGGAGCAAUAUUACGUGGG the same measures were -2.68 ± 0.18 and -2.68 ± 0.17. For AAGAAGCAAUAUUACGCAUC the same measures were -1.92 ± 0.22 and -0.986 ± 0.2. For GCAGAGCAAUAUUACGAAUA the same measures were -3.67 ± 0.32 and -2.78 ± 0.26. For UAGUAGCAAUAUUACGUCGA, the “self-splicing fitness (ln)” value is, setting by setting: (30 °C) -1.6 ± 0.17; (37 °C) -1.24 ± 0.16. Taken in the same sequence, the figures for GCAGAGCAAUAUUACGGUCC were -2.22 ± 0.29 and -2.05 ± 0.4. For UAUCAGCAAUAUUACGUGAU the same measures were -3.01 ± 0.12 and -1.51 ± 0.11. Consider AUAUAGCAAUAUUACGCGCC, for which the “self-splicing fitness (ln)” value reads like this: (30 °C) -1.51 ± 0.33; (37 °C) -1.35 ± 0.41.

In the case of AAACAGCAAUAUUACGGGGC, the “self-splicing fitness (ln)” value reads like this: (30 °C) -3.85 ± 0.16; (37 °C) -3.51 ± 0.19. For UGGCAGCAAUAUUACGUGAC the same measures were -2.83 ± 0.31 and -1.22 ± 0.25.

The record behind these values is the supplement of paper PMC7877785.
